Experimental data from patent US20110052564.

Experiments:
[1] = target: crossbeta FVIII-1 (cFVIII-1), Helixate kept at 4 C for 20 hours
[2] = target: T1, crossbeta nOVA, ovalbumin dissolved in PBS at 1.0 mg/mL, P01012
T1 chain: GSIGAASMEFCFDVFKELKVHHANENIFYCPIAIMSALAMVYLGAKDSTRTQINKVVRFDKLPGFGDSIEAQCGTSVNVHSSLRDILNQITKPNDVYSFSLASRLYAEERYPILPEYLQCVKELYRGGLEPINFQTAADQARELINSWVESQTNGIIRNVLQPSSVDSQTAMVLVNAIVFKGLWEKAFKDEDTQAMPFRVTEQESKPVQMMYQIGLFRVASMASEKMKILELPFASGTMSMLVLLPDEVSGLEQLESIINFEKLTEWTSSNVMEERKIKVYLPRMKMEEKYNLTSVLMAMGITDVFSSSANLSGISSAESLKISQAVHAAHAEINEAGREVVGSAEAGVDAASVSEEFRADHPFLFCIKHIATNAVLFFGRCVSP

[3] = target: misfolded H5 of H5N1 strain A/Vietnam/1203/04, cH5-2
[4] = target: crossbeta factor VIII form 12, Helixate kept at 37 C for 1 week, P00451
[5] = target: T2, crossbeta dOVA-1, ovalbumin at 5.2 mg/ml in HBS treated with HCl for 40 minutes at 37 C and neutralized, P01012
T2 chain: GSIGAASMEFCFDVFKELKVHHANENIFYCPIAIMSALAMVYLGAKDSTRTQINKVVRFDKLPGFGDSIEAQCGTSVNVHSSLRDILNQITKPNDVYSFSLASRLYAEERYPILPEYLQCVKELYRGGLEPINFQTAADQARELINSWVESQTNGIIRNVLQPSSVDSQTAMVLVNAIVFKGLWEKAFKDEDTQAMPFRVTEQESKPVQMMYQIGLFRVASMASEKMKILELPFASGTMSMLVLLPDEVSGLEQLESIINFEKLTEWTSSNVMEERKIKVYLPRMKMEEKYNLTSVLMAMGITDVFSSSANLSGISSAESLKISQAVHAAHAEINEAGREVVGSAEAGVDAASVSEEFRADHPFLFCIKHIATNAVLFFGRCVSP

[6] = target: non-treated H5 of H5N1 strain A/Vietnam/1203/04 (nH5), Protein Sciences
[7] = target: misfolded H5 of H5N1 strain A/Vietnam/1203/04, cH5-4
[8] = target: misfolded H5 of H5N1 strain A/Vietnam/1203/04, cH5-1
[9] = target: crossbeta FVIII-5 (cFVIII-5), Helixate kept at 95 C for 5 minutes
[10] = target: misfolded H5 of H5N1 strain A/Vietnam/1203/04, cH5-3
[11] = target: T3, crossbeta dOVA-3, ovalbumin at 1 mg/ml in PBS incubated about 16 h at 75 C, P01012
T3 chain: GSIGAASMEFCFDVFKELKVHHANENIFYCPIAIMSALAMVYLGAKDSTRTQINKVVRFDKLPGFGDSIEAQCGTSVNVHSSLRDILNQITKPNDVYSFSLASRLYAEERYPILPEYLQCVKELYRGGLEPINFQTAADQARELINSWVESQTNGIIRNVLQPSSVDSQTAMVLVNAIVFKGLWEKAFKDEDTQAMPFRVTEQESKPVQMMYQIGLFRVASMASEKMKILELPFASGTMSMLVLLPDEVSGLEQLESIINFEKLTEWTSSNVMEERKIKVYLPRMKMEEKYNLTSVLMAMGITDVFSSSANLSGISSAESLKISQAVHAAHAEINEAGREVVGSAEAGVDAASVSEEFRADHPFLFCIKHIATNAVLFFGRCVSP

[12] = target: T4, crossbeta dOVA-2, ovalbumin at 1.0 mg/mL in PBS heated five cycles from 30 to 85 C, P01012
T4 chain: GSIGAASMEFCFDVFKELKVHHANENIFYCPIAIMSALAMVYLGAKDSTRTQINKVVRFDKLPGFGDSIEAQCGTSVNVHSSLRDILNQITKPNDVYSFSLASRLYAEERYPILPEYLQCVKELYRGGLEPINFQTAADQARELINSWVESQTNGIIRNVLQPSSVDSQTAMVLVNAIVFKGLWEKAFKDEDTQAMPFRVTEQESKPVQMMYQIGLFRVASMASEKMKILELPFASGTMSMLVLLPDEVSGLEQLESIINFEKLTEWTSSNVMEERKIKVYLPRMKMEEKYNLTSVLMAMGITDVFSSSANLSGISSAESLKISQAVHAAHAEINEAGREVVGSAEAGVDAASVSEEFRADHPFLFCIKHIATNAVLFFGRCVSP

Chain of crossbeta FVIII-1 (cFVIII-1), Helixate kept at 4 C for 20 hours (chain, as listed by the source): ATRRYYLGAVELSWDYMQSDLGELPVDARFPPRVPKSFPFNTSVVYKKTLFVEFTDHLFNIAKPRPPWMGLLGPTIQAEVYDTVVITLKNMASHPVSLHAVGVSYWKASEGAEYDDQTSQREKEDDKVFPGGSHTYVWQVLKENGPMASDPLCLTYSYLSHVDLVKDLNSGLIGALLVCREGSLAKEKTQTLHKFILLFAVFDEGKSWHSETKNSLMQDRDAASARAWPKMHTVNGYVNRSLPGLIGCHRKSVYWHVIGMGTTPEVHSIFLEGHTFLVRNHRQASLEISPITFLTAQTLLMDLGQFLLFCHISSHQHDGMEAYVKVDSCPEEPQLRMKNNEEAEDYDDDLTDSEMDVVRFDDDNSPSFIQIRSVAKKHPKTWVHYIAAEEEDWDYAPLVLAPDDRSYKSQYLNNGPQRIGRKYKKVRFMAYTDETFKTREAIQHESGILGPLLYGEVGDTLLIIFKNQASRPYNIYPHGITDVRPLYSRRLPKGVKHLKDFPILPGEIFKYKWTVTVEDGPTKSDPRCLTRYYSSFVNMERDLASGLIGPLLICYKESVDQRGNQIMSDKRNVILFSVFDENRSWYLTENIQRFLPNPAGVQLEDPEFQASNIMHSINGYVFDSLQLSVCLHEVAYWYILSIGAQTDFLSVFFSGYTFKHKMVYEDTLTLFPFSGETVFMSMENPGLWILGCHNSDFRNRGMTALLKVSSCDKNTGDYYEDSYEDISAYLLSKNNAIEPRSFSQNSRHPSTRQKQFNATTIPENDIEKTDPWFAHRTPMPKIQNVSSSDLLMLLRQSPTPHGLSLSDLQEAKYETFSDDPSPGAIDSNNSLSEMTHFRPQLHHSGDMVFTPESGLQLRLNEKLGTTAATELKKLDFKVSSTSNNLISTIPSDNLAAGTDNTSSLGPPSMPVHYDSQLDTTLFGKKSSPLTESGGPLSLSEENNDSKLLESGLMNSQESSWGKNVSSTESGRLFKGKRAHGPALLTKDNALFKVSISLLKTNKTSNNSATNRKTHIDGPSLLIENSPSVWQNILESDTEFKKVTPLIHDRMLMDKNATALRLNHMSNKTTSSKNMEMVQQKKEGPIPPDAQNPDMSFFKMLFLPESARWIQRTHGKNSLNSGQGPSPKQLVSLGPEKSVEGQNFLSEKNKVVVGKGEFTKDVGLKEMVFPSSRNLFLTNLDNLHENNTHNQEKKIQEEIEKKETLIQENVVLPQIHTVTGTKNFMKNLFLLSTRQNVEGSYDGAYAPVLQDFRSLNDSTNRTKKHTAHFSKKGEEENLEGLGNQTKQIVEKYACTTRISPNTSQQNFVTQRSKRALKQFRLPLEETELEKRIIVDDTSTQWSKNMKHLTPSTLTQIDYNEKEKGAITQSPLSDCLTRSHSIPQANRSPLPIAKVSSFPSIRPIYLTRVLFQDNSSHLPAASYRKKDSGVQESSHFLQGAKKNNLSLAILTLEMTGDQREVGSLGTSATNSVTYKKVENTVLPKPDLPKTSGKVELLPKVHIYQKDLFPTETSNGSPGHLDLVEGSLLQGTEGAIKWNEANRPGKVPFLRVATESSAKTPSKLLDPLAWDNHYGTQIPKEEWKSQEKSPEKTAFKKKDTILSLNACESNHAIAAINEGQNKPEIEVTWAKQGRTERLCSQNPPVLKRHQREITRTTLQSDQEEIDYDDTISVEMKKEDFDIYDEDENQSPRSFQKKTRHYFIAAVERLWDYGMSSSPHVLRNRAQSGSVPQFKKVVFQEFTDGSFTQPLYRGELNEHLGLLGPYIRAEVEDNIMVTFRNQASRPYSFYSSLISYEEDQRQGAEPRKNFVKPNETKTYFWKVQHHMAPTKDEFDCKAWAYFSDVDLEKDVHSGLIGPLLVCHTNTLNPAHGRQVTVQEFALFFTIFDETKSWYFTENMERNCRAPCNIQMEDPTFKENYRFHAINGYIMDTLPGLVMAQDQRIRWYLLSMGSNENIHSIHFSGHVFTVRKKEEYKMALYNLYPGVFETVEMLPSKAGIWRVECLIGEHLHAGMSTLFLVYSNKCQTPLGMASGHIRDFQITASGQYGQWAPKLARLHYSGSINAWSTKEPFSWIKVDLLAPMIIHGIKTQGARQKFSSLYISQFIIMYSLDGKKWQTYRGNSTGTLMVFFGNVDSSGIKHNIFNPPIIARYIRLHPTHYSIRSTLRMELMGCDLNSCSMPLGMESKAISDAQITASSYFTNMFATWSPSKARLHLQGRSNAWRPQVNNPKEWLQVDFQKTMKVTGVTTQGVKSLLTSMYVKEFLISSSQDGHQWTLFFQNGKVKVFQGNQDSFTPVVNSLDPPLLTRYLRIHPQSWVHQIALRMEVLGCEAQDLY
Chain of crossbeta FVIII-5 (cFVIII-5), Helixate kept at 95 C for 5 minutes (chain, as listed by the source): as above
Chain of crossbeta factor VIII form 12, Helixate kept at 37 C for 1 week, P00451 (P00451 whole entry, looked up): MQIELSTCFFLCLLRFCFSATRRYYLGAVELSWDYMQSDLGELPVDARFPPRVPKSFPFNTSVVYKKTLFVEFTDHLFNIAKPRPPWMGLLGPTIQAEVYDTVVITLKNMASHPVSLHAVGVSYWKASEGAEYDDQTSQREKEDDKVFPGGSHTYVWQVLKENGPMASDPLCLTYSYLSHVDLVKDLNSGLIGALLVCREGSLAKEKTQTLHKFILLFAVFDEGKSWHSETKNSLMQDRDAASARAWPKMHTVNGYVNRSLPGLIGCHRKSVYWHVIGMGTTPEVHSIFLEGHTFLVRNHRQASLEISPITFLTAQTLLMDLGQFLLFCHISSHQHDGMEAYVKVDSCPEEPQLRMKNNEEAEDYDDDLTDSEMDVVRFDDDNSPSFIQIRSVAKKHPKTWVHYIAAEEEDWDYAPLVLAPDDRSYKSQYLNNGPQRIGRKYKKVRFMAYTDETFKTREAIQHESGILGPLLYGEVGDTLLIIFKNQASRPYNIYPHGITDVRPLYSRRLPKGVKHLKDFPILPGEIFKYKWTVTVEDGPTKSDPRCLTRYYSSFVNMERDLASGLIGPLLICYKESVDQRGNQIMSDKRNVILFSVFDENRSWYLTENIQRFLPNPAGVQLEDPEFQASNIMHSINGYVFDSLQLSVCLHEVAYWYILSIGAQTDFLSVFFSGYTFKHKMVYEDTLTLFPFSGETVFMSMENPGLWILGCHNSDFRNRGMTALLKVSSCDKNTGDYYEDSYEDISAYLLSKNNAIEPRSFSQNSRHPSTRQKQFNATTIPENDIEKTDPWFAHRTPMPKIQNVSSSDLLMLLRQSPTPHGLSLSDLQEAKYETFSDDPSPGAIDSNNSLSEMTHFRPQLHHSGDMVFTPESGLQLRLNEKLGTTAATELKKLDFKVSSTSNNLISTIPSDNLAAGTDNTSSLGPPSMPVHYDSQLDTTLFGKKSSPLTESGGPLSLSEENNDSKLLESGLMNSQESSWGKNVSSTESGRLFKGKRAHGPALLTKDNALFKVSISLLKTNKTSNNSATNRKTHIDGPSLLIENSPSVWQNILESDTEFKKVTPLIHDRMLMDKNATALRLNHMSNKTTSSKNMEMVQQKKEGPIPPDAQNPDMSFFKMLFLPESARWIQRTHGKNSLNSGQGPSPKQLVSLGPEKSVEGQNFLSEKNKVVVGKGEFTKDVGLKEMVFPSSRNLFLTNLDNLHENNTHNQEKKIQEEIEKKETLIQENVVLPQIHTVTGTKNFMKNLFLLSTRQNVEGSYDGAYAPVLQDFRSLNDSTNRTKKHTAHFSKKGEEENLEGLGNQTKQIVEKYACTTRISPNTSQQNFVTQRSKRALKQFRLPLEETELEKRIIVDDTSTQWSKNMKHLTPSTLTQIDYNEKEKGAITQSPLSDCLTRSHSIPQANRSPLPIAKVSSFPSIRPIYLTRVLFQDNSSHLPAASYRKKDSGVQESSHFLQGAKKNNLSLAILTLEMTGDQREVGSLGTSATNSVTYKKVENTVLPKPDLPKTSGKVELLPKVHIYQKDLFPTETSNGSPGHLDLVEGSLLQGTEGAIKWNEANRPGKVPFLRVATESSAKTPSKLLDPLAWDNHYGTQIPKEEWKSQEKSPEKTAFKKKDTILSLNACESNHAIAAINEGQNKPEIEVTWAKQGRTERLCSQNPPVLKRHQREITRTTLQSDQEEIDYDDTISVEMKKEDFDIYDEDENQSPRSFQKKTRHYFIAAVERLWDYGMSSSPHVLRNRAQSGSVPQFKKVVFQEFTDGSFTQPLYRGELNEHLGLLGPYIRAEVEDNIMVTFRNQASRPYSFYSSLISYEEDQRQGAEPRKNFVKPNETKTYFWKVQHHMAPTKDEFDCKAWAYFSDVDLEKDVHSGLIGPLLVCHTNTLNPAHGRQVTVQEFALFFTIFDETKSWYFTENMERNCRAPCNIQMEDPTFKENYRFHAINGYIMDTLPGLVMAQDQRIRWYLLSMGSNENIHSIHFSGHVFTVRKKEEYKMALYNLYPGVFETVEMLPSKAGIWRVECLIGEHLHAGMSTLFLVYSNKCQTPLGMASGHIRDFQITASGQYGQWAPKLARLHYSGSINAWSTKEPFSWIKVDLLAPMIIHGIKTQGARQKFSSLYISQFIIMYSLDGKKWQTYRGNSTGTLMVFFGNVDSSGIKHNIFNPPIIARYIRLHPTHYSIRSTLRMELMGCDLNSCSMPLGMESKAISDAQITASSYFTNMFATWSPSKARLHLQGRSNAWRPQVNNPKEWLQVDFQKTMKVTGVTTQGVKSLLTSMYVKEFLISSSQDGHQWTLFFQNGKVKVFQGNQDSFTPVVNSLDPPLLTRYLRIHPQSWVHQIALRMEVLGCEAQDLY

B1: tissue type plasminogen activator (tPA; Actilyse, Boehringer-Ingelheim) (protein)
chain: SYQVICRDEKTQMIYQQHQSWLRPVLRSNRVEYCWCNSGRAQCHSVPVKSCSEPRCFNGGTCQQALYFSDFVCQCPEGFAGKCCEIDTRATCYEDQGISYRGTWSTAESGAECTNWNSSALAQKPYSGRRPDAIRLGLGNHNYCRNPDRDSKPWCYVFKAGKYSSEFCSTPACSEGNSDCYFGNGSAYRGTHSLTESGASCLPWNSMILIGKVYTAQNPSAQALGLGKHNYCRNPDGDAKPWCHVLKNRRLTWEYCDVPSCSTCGLRQYSQPQFRIKGGLFADIASHPWQAAIFAKHRRSPGERFLCGGILISSCWILSAAHCFQERFPPHHLTVILGRTYRVVPGEEEQKFEVEKYIVHKEFDDDTYDNDIALLQLKSDSSRCAQESSVVRTVCLPPADLQLPDWTECELSGYGKHEALSPFYSERLKEAHVRLYPSSRCTSQHLLNRTVTDNMLCAGDTRSGGPQANLHDACQGDSGGPLVCLNDGRMTLVGIISWGLGCGQKDVPGVYTKVTNYLDWIRDNMRP
For B1, the “tPA/Plg activation assay, relative crossbeta content compared to a misfolded ovalbumin standard” value [1] was “approximately 50, 75 and 125%”, the Activation at 10 ug/mL [2] was 48.8% and the Activation at 25 ug/mL [2] was 48.1%. For the same protein, the “tPA mediated plasminogen activation assay” value [3] was “cH5-2 (150% of standard)”, the “tPA/Plg activation assay, relative crossbeta content compared to a misfolded ovalbumin standard” value [4] was “approximately 50, 75 and 125%” and the Activation at 10 ug/mL [5] was 97.4%. For the same protein, the Activation at 25 ug/mL [5] was 136%, the “tPA mediated plasminogen activation assay” value [6] was “nH5 (140% of standard)” and the “tPA mediated plasminogen activation assay” value [7] was “cH5-4 (37% of standard)”. For the same protein, the “tPA mediated plasminogen activation assay” value [8] was “cH5-1 (50% of standard)”, the “tPA/Plg activation assay, relative crossbeta content compared to a misfolded ovalbumin standard” value [9] was “approximately 50, 75 and 125%” and the “tPA mediated plasminogen activation assay” value [10] was “cH5-3 (200% of standard)”. It also gave an Activation at 10 ug/mL [11] of 60.9%, an Activation at 25 ug/mL [11] of 79% and an Activation at 10 ug/mL [12] of 107%. The Activation at 10 ug/mL (row is the reference dOVA-2 at 80, set at 100%) [12] was 100%, the Activation at 25 ug/mL [12] was 107% and the Activation at 25 ug/mL (row is the reference dOVA-2 at 80, set at 100%) [12] was 100%.
